Measurements from PMC5645493, “LAR-RPTP Clustering Is Modulated by Competitive Binding between Synaptic Adhesion Partners and Heparan Sulfate” (Frontiers in Molecular Neuroscience, 2017).

B1: human IL1RAPL1 Ig1-3 (domain or fragment)
chain: SADGCTDWSIDIKKYQVLVGEPVRIKCALFYGYIRTNYSLAQSAGLSLMWYKSSGPGDFEEPIAFDGSRMSKEEDSIWFRPTLLQDSGLYACVIRNSTYCMKVSISLTVGENDTGLCYNSKMKYFEKAELSKSKEISCRDIEDFLLPTREPEILWYKECRTKTWRPSIVFKRDTLLIREVREDDIGNYTCELKYGGFVVRRTTELTVTAPLTDKPPKLLYPMESKLTIQETQLGDSANLTCRAFFGYSGDVSPLIYWMKGEKFIEDLDENRVWESDIRILKEHLGEQEVSISLIVDSVEEGDLGNYSCYVENGNGRRHASVLL
modifications: glycans (NAG2-BMA-MAN) attached to N138
notes: IL-1 receptor accessory protein-like 1 (IL1RAPL1), human, Ig-like domains 1-3 of the extracellular part; In the functional row the Fc-fused form (Fc not cleaved) was used; also called IL-1 receptor accessory protein-like 1; IL1RAPL1 Ig1-3-Fc / IL1RAPL1-Fc (Fc kept, in the clustering assays only); source: High Five insect cells (baculovirus), secreted, purified (IgG Sepharose or protein A …)
B2: human PTPδ Ig1-3(+/+) (domain or fragment)
chain: ETPPRFTRTPVDQTGVSGGVASFICQATGDPRPKIVWNKKGKKVSNQRFEVIEFDDGSGSVLRIQPLRTPRDEAIYECVASNNVGEISVSTRLTVLREDQIPRGFPTIDMGPQLKVVERTRTATMLCAASGNPDPEITWFKDFLPVDTSNNNGRIKQLRSESIGGTPIRGALQIEQSEESDQGKYECVATNSAGTRYSAPANLYVRELREVRRVPPRFSIPPTNHEIMPGGSVNITCVAVGSPMPYVKWMLGAEDLTPEDDMPIGRNVLELNDVRQSANYTCVAMSTLGVIEAIAQIT
notes: receptor-type tyrosine-protein phosphatase delta (PTPδ), human, Ig-like domains 1-3, splice form with the MeA and MeB inserts (+/+); In the functional rows the Fc-fused form (Fc not cleaved) was used; also called PTPδ Ig1-3 MeA+MeB+; LAR-RPTP (PTPδ); source: High Five insect cells (baculovirus), secreted, purified (IgG Sepharose or protein A Sepharose, thrombin, Superdex 200)

Legend:
[1] = molecular target: the molecule itself; test: crystal structure; PTPδ Ig1-3(+/+) mixed with IL1RAPL1 Ig1-3 at 1:1, complex isolated by gel filtration; sitting drop, 296 K, 100 mM Tris-HCl pH 7.5, 200 mM zinc acetate, 10% PEG8K; space group P3_(2)12; 3.08 Å
[2] = molecular target: B1; test: as above; details: both partners purified

Row | Binder | binding result [1] | binding result [2]
1 | B1 | binds | 
2 | B2 | binds | binds
